Paper PMC7593816

Key:
[1] = target: HTR2A R185A^ICL2 mutant (human) (UniProt P28223)
[2] = target: HTR2A N107A^2.37 mutant (human) (UniProt P28223)

For “Gαq wild-type (GαrLuc8 of the BRET2 assay) (from UniProt P50148 1-359) (natural protein)”, which BRET2 assay, decrease of the efficacy of 25CN-NBOH [1] is on record?
Its BRET2 assay, decrease of the efficacy of 25CN-NBOH is 50%.

What about the BRET2 assay, decrease of the efficacy of 25CN-NBOH [2] of the same substance?
The BRET2 assay, decrease of the efficacy of 25CN-NBOH was 50%.
